Laboratory results: the supplement of paper PMC5998384

Assays:
HeLa Kyoto [1] = assay: solubility change mitosis vs G1/S (difference of NP-40 vs SDS log2 ratios) (log2 ratio difference); higher = more soluble in mitosis
HeLa Kyoto [2] = assay: thermal stability score vs G1/S (z-score of summed log2 fold changes over temperatures); higher = more thermally stable than in G1/S
HeLa Kyoto [3] = assay: solubility in G1/S (NP-40 vs SDS abundance) (log2 ratio); higher = more soluble; settings: cell cycle stage: G1/S
HeLa Kyoto [4] = assay: melting temperature (median over replicates), in situ; higher = more thermally stable
[5] = cell cycle stage: early G1 (4.5 h after nocodazole release)
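For melting temperature (median over replicates), in situ in this document: HeLa Kyoto cells synchronized by double thymidine or nocodazole block, proteins quantified by TMT10plex mass spectrometry, three independent biological replicates.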
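For solubility change mitosis vs G1/S (difference of NP-40 vs SDS log2 ratios) in this document: synchronized HeLa Kyoto cells (double thymidine block for G1/S, nocodazole release for mitosis), protein amounts in NP-40 versus SDS lysates quantified by mass spectrometry, three biological replicates.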
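For solubility in G1/S (NP-40 vs SDS abundance) in this document: HeLa Kyoto cells arrested at G1/S by double thymidine block, proteins quantified by TMT10plex mass spectrometry in mild NP-40 versus SDS extracts, three biological replicates.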
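For thermal stability score vs G1/S (z-score of summed log2 fold changes over temperatures) in this document: synchronized HeLa Kyoto cells, proteins quantified by TMT10plex mass spectrometry, three biological replicates, mitosis taken 0.5 h after nocodazole release, G1/S directly after double thymidine block.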

| Sequence | solubility change mitosis (log2) (HeLa Kyoto [1]) | thermal stability score (HeLa Kyoto [2]; [5]) | thermal stability score (HeLa Kyoto [2]; cell cycle stage: mitosis) | solubility in G1/S (log2) (HeLa Kyoto [3]) | melting temperature (HeLa Kyoto [4]; cell cycle stage: G1/S) | melting temperature (HeLa Kyoto [4]; cell cycle stage: mitosis) |
| --- | --- | --- | --- | --- | --- | --- |
| MNGTLDHPDQPDLDAIKMFVGQVPRTWSEKDLRELFEQYGAVYEINVLRDRSQNPPQSKGCCFVTFYTRKAALEAQNALHNMKVLPGMHHPIQMKPADSEKNNAVEDRKLFIGMISKKCTENDIRVMFSSFGQIEECRILRGPDGLSRGCAFVTFTTRAMAQTAIKAMHQAQTMEGCSSPMVVKFADTQKDKEQKRMAQQLQQQMQQISAASVWGNLAGLNTLGPQYLALYLQLLQQTASSGNLNTLSSLHPMGGLNAMQLQNLAALAAAASAAQNTPSGTNALTTSSSPLSVLTSSGSSPSSSSSNSVNPIASLGALQTLAGATAGLNVGSLAGMAALNGGLGSSGLSNGTGSTMEALTQAYSGIQQYAAAALPTLYNQNLLTQQSIGAAGSQKEGPEGANLFIYHLPQEFGDQDLLQMFMPFGNVVSAKVFIDKQTNLSKCFGFVSYDNPVSAQAAIQSMNGFQIGMKRLKVQLKRSKNDSKPY [CELF1] | -0.0537 | 1.56 | 2.85 | 0.269 | 47.5 °C | 48.1 °C |
| MNHLNVLAKALYDNVAESPDELSFRKGDIMTVLEQDTQGLDGWWLCSLHGRQGIVPGNRLKILVGMYDKKPAGPGPGPPATPAQPQPGLHAPAPPASQYTPMLPNTYQPQPDSVYLVPTPSKAQQGLYQVPGPSPQFQSPPAKQTSTFSKQTPHHPFPSPATDLYQVPPGPGGPAQDIYQVPPSAGMGHDIYQVPPSMDTRSWEGTKPPAKVVVPTRVGQGYVYEAAQPEQDEYDIPRHLLAPGPQDIYDVPPVRGLLPSQYGQEVYDTPPMAVKGPNGRDPLLEVYDVPPSVEKGLPPSNHHAVYDVPPSVSKDVPDGPLLREETYDVPPAFAKAKPFDPARTPLVLAAPPPDSPPAEDVYDVPPPAPDLYDVPPGLRRPGPGTLYDVPRERVLPPEVADGGVVDSGVYAVPPPAEREAPAEGKRLSASSTGSTRSSQSASSLEVAGPGREPLELEVAVEALARLQQGVSATVAHLLDLAGSAGATGSWRSPSEPQEPLVQDLQAAVAAVQSAVHELLEFARSAVGNAAHTSDRALHAKLSRQLQKMEDVHQTLVAHGQALDAGRGGSGATLEDLDRLVACSRAVPEDAKQLASFLHGNASLLFRRTKATAPGPEGGGTLHPNPTDKTSSIQSRPLPSPPKFTSQDSPDGQYENSEGGWMEDYDYVHLQGKEEFEKTQKELLEKGSITRQGKSQLELQQLKQFERLEQEVSRPIDHDLANWTPAQPLAPGRTGGLGPSDRQLLLFYLEQCEANLTTLTNAVDAFFTAVATNQPPKIFVAHSKFVILSAHKLVFIGDTLSRQAKAADVRSQVTHYSNLLCDLLRGIVATTKAAALQYPSPSAAQDMVERVKELGHSTQQFRRVLGQLAAA [BCAR1] | 0.0584 | 0.46 | 2.67 | 0.471 | 49.1 °C | 49.4 °C |
| MNIDDKLEGLFLKCGGIDEMQSSRTMVVMGGVSGQSTVSGELQDSVLQDRSMPHQEILAADEVLQESEMRQQDMISHDELMVHEETVKNDEEQMETHERLPQGLQYALNVPISVKQEITFTDVSEQLMRDKKQIREPVDLQKKKKRKQRSPAKILTINEDGSLGLKTPKSHVCEHCNAAFRTNYHLQRHVFIHTGEKPFQCSQCDMRFIQKYLLQRHEKIHTGEKPFRCDECGMRFIQKYHMERHKRTHSGEKPYQCEYCLQYFSRTDRVLKHKRMCHENHDKKLNRCAIKGGLLTSEEDSGFSTSPKDNSLPKKKRQKTEKKSSGMDKESALDKSDLKKDKNDYLPLYSSSTKVKDEYMVAEYAVEMPHSSVGGSHLEDASGEIHPPKLVLKKINSKRSLKQPLEQNQTISPLSTYEESKVSKYAFELVDKQALLDSEGNADIDQVDNLQEGPSKPVHSSTNYDDAMQFLKKKRYLQAASNNSREYALNVGTIASQPSVTQAAVASVIDESTTASILESQALNVEIKSNHDKNVIPDEVLQTLLDHYSHKANGQHEISFSVADTEVTSSISINSSEVPEVTPSENVGSSSQASSSDKANMLQEYSKFLQQALDRTSQNDAYLNSPSLNFVTDNQTLPNQPAFSSIDKQVYATMPINSFRSGMNSPLRTTPDKSHFGLIVGDSQHSFPFSGDETNHASATSTQDFLDQVTSQKKAEAQPVHQAYQMSSFEQPFRAPYHGSRAGIATQFSTANGQVNLRGPGTSAEFSEFPLVNVNDNRAGMTSSPDATTGQTFG [ZNF148] | 0.123 | 1.13 | -1.33 | -0.236 | 51.6 °C | 51.1 °C |
| MNIMDFNVKKLAADAGTFLSRAVQFTEEKLGQAEKTELDAHLENLLSKAECTKIWTEKIMKQTEVLLQPNPNARIEEFVYEKLDRKAPSRINNPELLGQYMIDAGTEFGPGTAYGNALIKCGETQKRIGTADRELIQTSALNFLTPLRNFIEGDYKTIAKERKLLQNKRLDLDAAKTRLKKAKAAETRNSSEQELRITQSEFDRQAEITRLLLEGISSTHAHHLRCLNDFVEAQMTYYAQCYQYMLDLQKQLGSFPSNYLSNNNQTSVTPVPSVLPNAIGSSAMASTSGLVITSPSNLSDLKECSGSRKARVLYDYDAANSTELSLLADEVITVFSVVGMDSDWLMGERGNQKGKVPITYLELLN [SH3GLB1] | 0.00172 | 1.13 | 2.44 | 0.531 | 48.1 °C | 48.7 °C |
| MNKHQKPVLTGQRFKTRKRDEKEKFEPTVFRDTLVQGLNEAGDDLEAVAKFLDSTGSRLDYRRYADTLFDILVAGSMLAPGGTRIDDGDKTKMTNHCVFSANEDHETIRNYAQVFNKLIRRYKYLEKAFEDEMKKLLLFLKAFSETEQTKLAMLSGILLGNGTLPATILTSLFTDSLVKEGIAASFAVKLFKAWMAEKDANSVTSSLRKANLDKRLLELFPVNRQSVDHFAKYFTDAGLKELSDFLRVQQSLGTRKELQKELQERLSQECPIKEVVLYVKEEMKRNDLPETAVIGLLWTCIMNAVEWNKKEELVAEQALKHLKQYAPLLAVFSSQGQSELILLQKVQEYCYDNIHFMKAFQKIVVLFYKADVLSEEAILKWYKEAHVAKGKSVFLDQMKKFVEWLQNAEEESESEGEEN [BZW2] | -0.11 | 2.74 | 3.19 | 0.446 | 51.3 °C | 50.1 °C |
| MNKLYIGNLSENAAPSDLESIFKDAKIPVSGPFLVKTGYAFVDCPDESWALKAIEALSGKIELHGKPIEVEHSVPKRQRIRKLQIRNIPPHLQWEVLDSLLVQYGVVESCEQVNTDSETAVVNVTYSSKDQARQALDKLNGFQLENFTLKVAYIPDEMAAQQNPLQQPRGRRGLGQRGSSRQGSPGSVSKQKPCDLPLRLLVPTQFVGAIIGKEGATIRNITKQTQSKIDVHRKENAGAAEKSITILSTPEGTSAACKSILEIMHKEAQDIKFTEEIPLKILAHNNFVGRLIGKEGRNLKKIEQDTDTKITISPLQELTLYNPERTITVKGNVETCAKAEEEIMKKIRESYENDIASMNLQAHLIPGLNLNALGLFPPTSGMPPPTSGPPSAMTPPYPQFEQSETETVHLFIPALSVGAIIGKQGQHIKQLSRFAGASIKIAPAEAPDAKVRMVIITGPPEAQFKAQGRIYGKIKEENFVSPKEEVKLEAHIRVPSFAAGRVIGKGGKTVNELQNLSSAEVVVPRDQTPDENDQVVVKITGHFYACQVAQRKIQEILTQVKQHQQQKALQSGPPQSRRK [IGF2BP3] | 0.0855 | 0.549 | 0.841 | 0.241 | 46.9 °C | 47.6 °C |
| MNKPITPSTYVRCLNVGLIRKLSDFIDPQEGWKKLAVAIKKPSGDDRYNQFHIRRFEALLQTGKSPTSELLFDWGTTNCTVGDLVDLLIQNEFFAPASLLLPDAVPKTANTLPSKEAITVQQKQMPFCDKDRTLMTPVQNLEQSYMPPDSSSPENKSLEVSDTRFHSFSFYELKNVTNNFDERPISVGGNKMGEGGFGVVYKGYVNNTTVAVKKLAAMVDITTEELKQQFDQEIKVMAKCQHENLVELLGFSSDGDDLCLVYVYMPNGSLLDRLSCLDGTPPLSWHMRCKIAQGAANGINFLHENHHIHRDIKSANILLDEAFTAKISDFGLARASEKFAQTVMTSRIVGTTAYMAPEALRGEITPKSDIYSFGVVLLEIITGLPAVDEHREPQLLLDIKEEIEDEEKTIEDYIDKKMNDADSTSVEAMYSVASQCLHEKKNKRPDIKKVQQLLQEMTAS [IRAK4] | -0.193 | 0.383 | 1.05 | 0.372 | 50.6 °C | 49.9 °C |
| MNLEKLSKPELLTLFSILEGELEARDLVIEALKAQHRDTFIEERYGKYNISDPLMALQRDFETLKEKNDGEKQPVCTNPLSILKVVMKQCKNMQERMLSQLAAAESRHRKVILDLEEERQRHAQDTAEGDDVTYMLEKERERLTQQLEFEKSQVKKFEKEQKKLSSQLEEERSRHKQLSSMLVLECKKATNKAAEEGQKAGELSLKLEKEKSRVSKLEEELAAERKRGLQTEAQVEKQLSEFDIEREQLRAKLNREENRTKTLKEEMESLKKIVKDLEASHQHSSPNEQLKKPVTVSKGTATEPLMLMSVFCQTESFPAERTHGSNIAKMTNTGLPGPATPAYSYAKTNGHCDPEIQTTRELTAGNNVENQVPPREKSVALAQEKPVENGGCPVGIETPVPMPSPLSSSGSSLSPSSTASSSLTSSPCSSPVLTKRLLGSSASSPGYQSSYQVGINQRFHAARHKFQSQADQDQQASGLQSPPSRDLSPTLIDNSAAKQLARNTVTQVLSRFTSQQGPIKPVSPNSSPFGTDYRNLANTANPRGDTSHSPTPGKVSSPLSPLSPGIKSPTIPRAERGNPPPIPPKKPGLTPSPSATTPLTKTHSQAASLTTAEDLASSCSSNTVVANGKDVELLLPTSS [CTTNBP2NL] | -0.363 | -2.02 | -1.85 | 0.435 | 49.9 °C | 50.3 °C |
| MNPRQGYSLSGYYTHPFQGYEHRQLRYQQPGPGSSPSSFLLKQIEFLKGQLPEAPVIGKQTPSLPPSLPGLRPRFPVLLASSTRGRQVDIRGVPRGVHLRSQGLQRGFQHPSPRGRSLPQRGVDCLSSHFQELSIYQDQEQRILKFLEELGEGKATTAHDLSGKLGTPKKEINRVLYSLAKKGKLQKEAGTPPLWKIAVSTQAWNQHSGVVRPDGHSQGAPNSDPSLEPEDRNSTSVSEDLLEPFIAVSAQAWNQHSGVVRPDSHSQGSPNSDPGLEPEDSNSTSALEDPLEFLDMAEIKEKICDYLFNVSDSSALNLAKNIGLTKARDINAVLIDMERQGDVYRQGTTPPIWHLTDKKRERMQIKRNTNSVPETAPAAIPETKRNAEFLTCNIPTSNASNNMVTTEKVENGQEPVIKLENRQEARPEPARLKPPVHYNGPSKAGYVDFENGQWATDDIPDDLNSIRAAPGEFRAIMEMPSFYSHGLPRCSPYKKLTECQLKNPISGLLEYAQFASQTCEFNMIEQSGPPHEPRFKFQVVINGREFPPAEAGSKKVAKQDAAMKAMTILLEEAKAKDSGKSEESSHYSTEKESEKTAESQTPTPSATSFFSGKSPVTTLLECMHKLGNSCEFRLLSKEGPAHEPKFQYCVAVGAQTFPSVSAPSKKVAKQMAAEEAMKALHGEATNSMASDNQPEGMISESLDNLESMMPNKVRKIGELVRYLNTNPVGGLLEYARSHGFAAEFKLVDQSGPPHEPKFVYQAKVGGRWFPAVCAHSKKQGKQEAADAALRVLIGENEKAERMGFTEVTPVTGASLRRTMLLLSRSPEAQPKTLPLTGSTFHDQIAMLSHRCFNTLTNSFQPSLLGRKILAAIIMKKDSEDMGVVVSLGTGNRCVKGDSLSLKGETVNDCHAEIISRRGFIRFLYSELMKYNSQTAKDSIFEPAKGGEKLQIKKTVSFHLYISTAPCGDGALFDKSCSDRAMESTESRHYPVFENPKQGKLRTKVENGEGTIPVESSDIVPTWDGIRLGERLRTMSCSDKILRWNVLGLQGALLTHFLQPIYLKSVTLGYLFSQGHLTRAICCRVTRDGSAFEDGLRHPFIVNHPKVGRVSIYDSKRQSGKTKETSVNWCLADGYDLEILDGTRGTVDGPRNELSRVSKKNIFLLFKKLCSFRYRRDLLRLSYGEAKKAARDYETAKNYFKKGLKDMGYGNWISKPQEEKNFYLCPV [ADAR] | 0.346 | 2.76 | 5.55 | -0.466 | 47.9 °C | 49 °C |
| MNQEKLAKLQAQVRIGGKGTARRKKKVVHRTATADDKKLQSSLKKLAVNNIAGIEEVNMIKDDGTVIHFNNPKVQASLSANTFAITGHAEAKPITEMLPGILSQLGADSLTSLRKLAEQFPRQVLDSKAPKPEDIDEEDDDVPDLVENFDEASKNEAN [BTF3L4] | 0.243 | -0.215 | -1.23 | 0.114 | 56.3 °C | 54.6 °C |
